From patent US20230212260A1 (published 2023) come the findings set out here.

For one assay, the target named is CD40 (UniProt P25942). The experiment in a line: cell-based or functional assay.
The next assay concerns the target T1, CD27 (UniProt P26842 20-260, limits assumed).
T1 sequence (looked up): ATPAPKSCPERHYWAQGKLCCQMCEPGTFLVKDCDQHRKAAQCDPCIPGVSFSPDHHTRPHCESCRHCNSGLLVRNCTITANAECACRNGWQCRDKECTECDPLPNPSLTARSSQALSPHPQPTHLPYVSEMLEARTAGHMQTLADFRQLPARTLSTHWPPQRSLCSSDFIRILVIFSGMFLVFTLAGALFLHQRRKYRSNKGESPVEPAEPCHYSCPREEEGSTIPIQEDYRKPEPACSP
The experiment in a line: cell-based or functional assay.

For a further assay, the target named is T2, human CEA (human, UniProt P06731 35-685, limits assumed).
T2 sequence (looked up): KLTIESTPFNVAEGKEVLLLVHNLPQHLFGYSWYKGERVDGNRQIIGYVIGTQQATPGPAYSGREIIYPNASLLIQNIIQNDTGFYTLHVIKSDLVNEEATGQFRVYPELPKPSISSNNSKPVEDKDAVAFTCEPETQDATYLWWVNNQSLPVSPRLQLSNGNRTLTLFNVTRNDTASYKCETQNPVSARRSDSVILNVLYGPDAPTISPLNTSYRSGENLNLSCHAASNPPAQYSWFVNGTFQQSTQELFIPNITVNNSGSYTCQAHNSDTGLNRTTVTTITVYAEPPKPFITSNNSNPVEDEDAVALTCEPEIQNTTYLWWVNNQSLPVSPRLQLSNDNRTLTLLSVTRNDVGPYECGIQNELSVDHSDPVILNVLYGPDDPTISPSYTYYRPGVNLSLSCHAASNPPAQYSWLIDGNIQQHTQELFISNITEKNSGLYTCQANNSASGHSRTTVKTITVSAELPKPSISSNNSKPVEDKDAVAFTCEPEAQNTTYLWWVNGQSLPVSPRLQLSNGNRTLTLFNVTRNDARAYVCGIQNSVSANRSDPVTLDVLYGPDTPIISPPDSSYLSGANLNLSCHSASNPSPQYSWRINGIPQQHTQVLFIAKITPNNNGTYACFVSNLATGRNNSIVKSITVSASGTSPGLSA
The experiment in a line: ELISA. (In general: ELISA stands for enzyme-linked immunosorbent assay.)

Sequence of CD40 (P25942 21-277 limits assumed): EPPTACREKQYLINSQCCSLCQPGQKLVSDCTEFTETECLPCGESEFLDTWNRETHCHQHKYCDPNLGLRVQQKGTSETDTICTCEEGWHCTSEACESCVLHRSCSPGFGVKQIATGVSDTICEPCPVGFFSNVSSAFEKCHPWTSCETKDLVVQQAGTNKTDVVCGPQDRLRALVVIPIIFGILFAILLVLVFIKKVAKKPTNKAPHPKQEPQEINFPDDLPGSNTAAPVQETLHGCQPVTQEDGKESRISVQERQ

In turn, Trimeric CD40L (ligand) gave an immature dendritic cell activation assay, activation level (CD86+ / CD83+), 100 ng/ml, 24 h in the assay with CD40 of 46.1%.

B1: aPDL1-scCD27L-SAB (bispecific antibody, human IgG1, kappa)
chain: QSLGWDVAELQLNHTGPQQDPRLYWQGGPALGRSFLHGPELDKGQLRIHRDGIYMVHIQVTLAICSSTTASRHHPTTLAVGICSPASRSISLLRLSFHQGCTIASQRLTPLARGDTLCTNLTGTLLPSRNTDETFFGVQWVRPGSGSGNGSESLGWDVAELQLNHTGPQQDPRLYWQGGPALGRSFLHGPELDKGQLRIHRDGIYMVHIQVTLAICSSTTASRHHPTTLAVGICSPASRSISLLRLSFHQGCTIASQRLTPLARGDTLCTNLTGTLLPSRNTDETFFGVQWVRPGSGSGNGSESLGWDVAELQLNHTGPQQDPRLYWQGGPALGRSFLHGPELDKGQLRIHRDGIYMVHIQVTLAICSSTTASRHHPTTLAVGICSPASRSISLLRLSFHQGCTIASQRLTPLARGDTLCTNLTGTLLPSRNTDETFFGVQWVRPGSGSDKTHTCPPCPAPELLGGPSVFLFPPKPKDTLMISRTPEVTCVVVDVSHEDPEVKFNWYVDGVEVHNAKTKPREEQYSSTYRVVSVLTVLHQDWLNGKEYKCKVSNKALPAPIEKTISKAKGQPREPQVYTLPPCRDELTKNQVSLWCLVKGFYPSDIAVEWESNGQPENNYKTTPPVLDSDGSFFLYSKLTVDKSRWQQGNVFSCSVMHEALHNHYTQKSLSLSPGK
heavy: EVQLLESGGGLVQPGGSLRLSCAASGFTFSSYIMMWVRQAPGKGLEWVSSIYPSGGITFYADTVKGRFTISRDNSKNTLYLQMNSLRAEDTAVYYCARIKLGTVTTVDYWGQGTLVTVSSASTKGPSVFPLAPSSKSTSGGTAALGCLVKDYFPEPVTVSWNSGALTSGVHTFPAVLQSSGLYSLSSVVTVPSSSLGTQTYICNVNHKPSNTKVDKKVEPKSCDKTHTCPPCPAPELLGGPSVFLFPPKPKDTLMISRTPEVTCVVVDVSHEDPEVKFNWYVDGVEVHNAKTKPREEQYSSTYRVVSVLTVLHQDWLNGKEYKCKVSNKALPAPIEKTISKAKGQPREPQVCTLPPSRDELTKNQVSLSCAVKGFYPSDIAVEWESNGQPENNYKTTPPVLDSDGSFFLVSKLTVDKSRWQQGNVFSCSVMHEALHNRFTQKSLSLSPGK
light: QSALTQPASVSGSPGQSITISCTGTSSDVGGYNYVSWYQQHPGKAPKLMIYDVSNRPSGVSNRFSGSKSGNTASLTISGLQAEDEADYYCSSYTSSSTRVFGTGTKVEIKRTVAAPSVFIFPPSDEQLKSGTASVVCLLNNFYPREAKVQWKVDNALQSGNSQESVTEQDSKDSTYSLSSTLTLSKADYEKHKVYACEVTHQGLSSPVTKSFNRGEC
Turning to B1, the “CD27 Luciferase assay with MDA-MB231 cells, activity against that of scCD27L-Fc” value with CD27 was approximately 3 fold.

B2: aCEA-scCD40L (bispecific antibody)
heavy: EVQLLESGGGLVQPGGSLRLSCATSGFTFTDYYMNWVRQAPGKGLEWLGFIGNKANGYTTEYSASVKGRFTISRDKSKSTLYLQMNTLQAEDSAIYYCTRDRGLRFYFDYWGQGTLVTVSSASTKGPSVFPFAPSSKSTSGGTAALGCLVKDYFPEPVTVSWNSGALTSGVHTFPAVLQSSGLYSLSSVVTVPSSSLGTQTYICNVNHKPSNTKVDKKVEPKSCDKTHGSGSSSSSSQIAAHVISEASSKTTSVLQWAEKGYYTMSNNLVTLENGKQLTVKRQGLYYIYAQVTFCSNREASSQAPFIASLSLKSPGRFERILLRAANTHSSAKPCGQQSIHLGGVFELQPGASVFVNVTDPSQVSHGTGFTSFGLLKLGSGSGNGSQIAAHVISEASSKTTSVLQWAEKGYYTMSNNLVTLENGKQLTVKRQGLYYIYAQVTFCSNREASSQAPFIASLSLKSPGRFERILLRAANTHSSAKPCGQQSIHLGGVFELQPGASVFVNVTDPSQVSHGTGFTSFGLLKLGSGSGNGSQIAAHVISEASSKTTSVLQWAEKGYYTMSNNLVTLENGKQLTVKRQGLYYIYAQVTFCSNREASSQAPFIASLSLKSPGRFERILLRAANTHSSAKPCGQQSIHLGGVFELQPGASVFVNVTDPSQVSHGTGFTSFGLLKL
light: QTVLTQSPSSLSVSVGDRVTITCRASSSVTYIHWYQQKPGLAPKSLIYATSNLASGVPSRFSGSGSGTDYTFTISSLQPEDIATYYCQHWSSKPPTFGQGTKVEVKRTVAAPSVFIFPPSDEQLKSGTASVVCLLNNFYPREAKVQWKVDNALQSGNSQESVTEQDSKDSTYSLSSTLTLSKADYEKHKVYACEVTHQGLSSPVTKSFNRGEC
Turning to B2, the binding result with human CEA is “binds”.
